Measurements: patent US20190345534

Tested on: GzmB peptide substrate AIEFDSGc on PEG-coated iron oxide nanoparticles (GzmB-sensing synthetic biomarker)

Factor D (Sigma), sequence (P00746 26-253): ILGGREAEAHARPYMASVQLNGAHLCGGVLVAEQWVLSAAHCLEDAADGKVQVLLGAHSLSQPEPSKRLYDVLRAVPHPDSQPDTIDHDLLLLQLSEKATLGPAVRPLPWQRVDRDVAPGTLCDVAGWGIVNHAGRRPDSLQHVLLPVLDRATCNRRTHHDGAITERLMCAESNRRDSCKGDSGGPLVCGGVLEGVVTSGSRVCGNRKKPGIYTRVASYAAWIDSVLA
MASP2 (Biomatik), sequence (O00187 16-686): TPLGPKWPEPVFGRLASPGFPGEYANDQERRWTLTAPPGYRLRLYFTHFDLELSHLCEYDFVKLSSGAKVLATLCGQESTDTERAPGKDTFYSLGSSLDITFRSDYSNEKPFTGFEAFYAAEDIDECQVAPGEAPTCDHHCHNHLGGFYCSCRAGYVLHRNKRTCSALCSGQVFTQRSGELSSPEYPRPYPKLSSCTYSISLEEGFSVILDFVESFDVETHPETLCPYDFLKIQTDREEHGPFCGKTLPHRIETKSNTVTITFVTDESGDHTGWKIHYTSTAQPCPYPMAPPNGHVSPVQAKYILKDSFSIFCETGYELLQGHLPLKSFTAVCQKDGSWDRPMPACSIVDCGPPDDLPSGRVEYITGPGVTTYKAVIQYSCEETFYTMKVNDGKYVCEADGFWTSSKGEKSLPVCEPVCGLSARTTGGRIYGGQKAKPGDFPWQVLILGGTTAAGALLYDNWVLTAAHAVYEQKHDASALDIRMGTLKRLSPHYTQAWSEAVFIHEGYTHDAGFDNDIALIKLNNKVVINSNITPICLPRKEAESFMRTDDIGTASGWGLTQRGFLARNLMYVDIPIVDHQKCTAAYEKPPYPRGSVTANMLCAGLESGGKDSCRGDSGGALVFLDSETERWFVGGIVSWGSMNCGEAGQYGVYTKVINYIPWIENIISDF
Factor I (Sigma), sequence (P05156 19-583): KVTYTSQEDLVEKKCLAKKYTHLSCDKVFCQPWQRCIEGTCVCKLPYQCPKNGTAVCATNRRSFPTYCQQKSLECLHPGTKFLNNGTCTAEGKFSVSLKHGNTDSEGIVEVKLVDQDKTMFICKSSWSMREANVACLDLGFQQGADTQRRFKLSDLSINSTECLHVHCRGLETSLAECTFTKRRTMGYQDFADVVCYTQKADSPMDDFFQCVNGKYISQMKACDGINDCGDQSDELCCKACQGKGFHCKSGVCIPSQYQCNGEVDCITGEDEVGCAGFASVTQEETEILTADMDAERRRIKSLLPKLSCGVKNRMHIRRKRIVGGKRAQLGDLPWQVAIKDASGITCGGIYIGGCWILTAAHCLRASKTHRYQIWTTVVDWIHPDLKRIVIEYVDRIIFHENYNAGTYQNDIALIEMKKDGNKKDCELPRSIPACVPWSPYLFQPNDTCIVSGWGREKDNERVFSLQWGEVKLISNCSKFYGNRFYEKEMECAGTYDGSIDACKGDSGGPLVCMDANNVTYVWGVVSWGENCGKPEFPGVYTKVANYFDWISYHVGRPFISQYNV

Substance	fluorescent intensity (in vitro protease cleavage assay)
Factor D (Sigma)	Increases in fluorescent intensity were observed only in samples containing recombinant GzmB
Factor I (Sigma)	Increases in fluorescent intensity were observed only in samples containing recombinant GzmB
MASP2 (Biomatik)	Increases in fluorescent intensity were observed only in samples containing recombinant GzmB
human thrombin (HaemTech)	Increases in fluorescent intensity were observed only in samples containing recombinant GzmB
mouse thrombin (HaemTech)	Increases in fluorescent intensity were observed only in samples containing recombinant GzmB
